B1: htt^NTQ20P10K2 (huntingtin N-terminal fragment peptide) (peptide)
chain: MATLEKLMKAFESLKSFQQQQQQQQQQQQQQQQQQQQPPPPPPPPPPKK
B2: K2Q23K2 (peptide)
chain: KKQQQQQQQQQQQQQQQQQQQQQQQKK

Tests used:
[1] = target: the molecule itself; assay: aggregates isolated by centrifugation + limited proteolysis
[2] = target: the molecule itself; assay: sedimentation assay

Protein	binding result [1]	binding result [2]
B1	binds	
B2		binds

Source: article PMC3057327 (Methods (San Diego, Calif.), 2011)
